Reference: patent publication US10472401B2, “Peptides and combination of peptides for use in immunotherapy against ovarian cancer and other cancers” (immatics biotechnologies GmbH, priority 2015, dated 2019)

Target: HLA-A*02:01 (Homo sapiens, UniProt P04439, D140Y/D185E/D98H/E176V/E277Q/G131W/G231S/I119V/I121R/I166T/I218V/L300P/L318F/N151K/N90K/P208A/P217A/Q86G/Q94H/R138H/R169H/T345S)
Assay: MHC binding assay (UV-ligand exchange, ELISA of stabilized MHC complexes)
Conditions: MHC class I binding score; binding to HLA-A*02:01 ranged by peptide exchange yield (UV-ligand exchange, ELISA)
How it was run: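 Binding scored as exchange yield, detected via β2m of stabilized complexes in an HRP/TMB ELISA read at 450 nm after streptavidin capture of 100-fold diluted monomers for 1 h at 37 °C. Complexes came from UV irradiation cleaving a photolabile peptide, exchanged for the candidate.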

Substance | Peptide exchange
371 (FLQAHLHTA; listed as Homo sapiens) [compound 371] | ″++++″ (≥75% = ++++)
94 (YLIDIKTIAI; listed as Homo sapiens) [compound 94] | ″++″ (≥20% = ++)
393 (GLLDTQTSQVLTA; listed as Homo sapiens) [compound 393] | ″++″ (≥20% = ++)
195 (GLFADLLPRL; listed as Homo sapiens) [compound 195] | ″+++″ (≥50% = +++)
179 (KVLNELYTV; listed as Homo sapiens) [compound 179] | ″+++″ (≥50% = +++)
322 (TLMTSLPAL; listed as Homo sapiens) [compound 322] | ″+++″ (≥50% = +++)
586 (KLKPGDLVGV; listed as Homo sapiens) [compound 586] | ″+++″ (≥50% = +++)
278 (QLLDVVLTI; listed as Homo sapiens) [compound 278] | ″++″ (≥20% = ++)
286 (YLFPGIPEL; listed as Homo sapiens) [compound 286] | ″+++″ (≥50% = +++)
592 (RLLSAAENFL; listed as Homo sapiens) [compound 592] | ″+++″ (≥50% = +++)
334 (TLTKVLVAL; listed as Homo sapiens) [compound 334] | ″+++″ (≥50% = +++)
240 (ILLEQAFYL; listed as Homo sapiens) [compound 240] | ″+++″ (≥50% = +++)
379 (IMEGTLTRV; listed as Homo sapiens) [compound 379] | ″++″ (≥20% = ++)
491 (GLNDRSDAV; listed as Homo sapiens) [compound 491] | ″++″ (≥20% = ++)
363 (KVLDVSDLESV; listed as Homo sapiens) [compound 363] | ″++″ (≥20% = ++)
63 (YLLPSGGSVTL; listed as Homo sapiens) [compound 63] | ″++″ (≥20% = ++)
621 (VLMDRLPSLL; listed as Homo sapiens) [compound 621] | ″++++″ (≥75% = ++++)
91 (IMQDFPAEIFL; listed as Homo sapiens) [compound 91] | ″++++″ (≥75% = ++++)
147 (SLLEAVSFL; listed as Homo sapiens) [compound 147] | ″+++″ (≥50% = +++)
397 (YLFGERLLEC; listed as Homo sapiens) [compound 397] | ″+++″ (≥50% = +++)

Substance | Peptide exchange
427 (ALLPLSPYL; listed as Homo sapiens) [compound 427] | ″+++″ (≥50% = +++)
500 (SLMEDQVLQL; listed as Homo sapiens) [compound 500] | ″+++″ (≥50% = +++)
153 (FLIANVLYL; listed as Homo sapiens) [compound 153] | ″+″ (≥10% = +)
333 (FLPDANSSV; listed as Homo sapiens) [compound 333] | ″++″ (≥20% = ++)
517 (LLMPIPEGLTL; listed as Homo sapiens) [compound 517] | ″+++″ (≥50% = +++)
456 (LLIGHLERV; listed as Homo sapiens) [compound 456] | ″+++″ (≥50% = +++)
595 (VLLSIYPRV; listed as Homo sapiens) [compound 595] | ″+++″ (≥50% = +++)
42 (VLLQKIVSA; listed as Homo sapiens) [compound 42] | ″+++″ (≥50% = +++)
605 (KLYEAVPQL; listed as Homo sapiens) [compound 605] | ″+++″ (≥50% = +++)
74 (ALLDPEVLSIFV; listed as Homo sapiens) [compound 74] | ″+++″ (≥50% = +++)
33 (VLLSLLEKV; listed as Homo sapiens) [compound 33] | ″++″ (≥20% = ++)
184 (YLMDINGKMWL; listed as Homo sapiens) [compound 184] | ″+++″ (≥50% = +++)
137 (TLVLTLPTV; listed as Homo sapiens) [compound 137] | ″++++″ (≥75% = ++++)
232 (ALLEAQDVELYL; listed as Homo sapiens) [compound 232] | ″++″ (≥20% = ++)
382 (ALQNYIKEA; listed as Homo sapiens) [compound 382] | ″++″ (≥20% = ++)
111 (YVWGFYPAEV; listed as Homo sapiens) [compound 111] | ″+++″ (≥50% = +++)
129 (GLLDGGVDILL; listed as Homo sapiens) [compound 129] | ″+++″ (≥50% = +++)
610 (LLAPTPYIIGV; listed as Homo sapiens) [compound 610] | ″+++″ (≥50% = +++)
612 (YLYNEGLSV; listed as Homo sapiens) [compound 612] | ″+++″ (≥50% = +++)
138 (YQYPRAILSV; listed as Homo sapiens) [compound 138] | ″+++″ (≥50% = +++)

Substance | Peptide exchange
571 (LLLTTIPQI; listed as Homo sapiens) [compound 571] | ″+++″ (≥50% = +++)
502 (RLLAQVPGL; listed as Homo sapiens) [compound 502] | ″+++″ (≥50% = +++)
243 (LLLNELPSV; listed as Homo sapiens) [compound 243] | ″+++″ (≥50% = +++)
201 (RLVDYLEGI; listed as Homo sapiens) [compound 201] | ″+++″ (≥50% = +++)
378 (ALGYFVPYV; listed as Homo sapiens) [compound 378] | ″+++″ (≥50% = +++)
99 (ALVSKGLATV; listed as Homo sapiens) [compound 99] | ″++″ (≥20% = ++)
373 (SLLEDKGLAEV; listed as Homo sapiens) [compound 373] | ″++″ (≥20% = ++)
316 (ILLERLWYV; listed as Homo sapiens) [compound 316] | ″+++″ (≥50% = +++)
216 (NLWEDPYYL; listed as Homo sapiens) [compound 216] | ″+++″ (≥50% = +++)
115 (AIAGAGILYGV; listed as Homo sapiens) [compound 115] | ″++″ (≥20% = ++)
304 (MTLGQIYYL; listed as Homo sapiens) [compound 304] | ″+++″ (≥50% = +++)
564 (TVTNAVVTV; listed as Homo sapiens) [compound 564] | ″+++″ (≥50% = +++)
613 (RLLPPGAVVAV; listed as Homo sapiens) [compound 613] | ″+++″ (≥50% = +++)
155 (RVANLHFPSV; listed as Homo sapiens) [compound 155] | ″+++″ (≥50% = +++)
16 (VLFQGQASL; listed as Homo sapiens) [compound 16] | ″+++″ (≥50% = +++)
21 (VLDELDMEL; listed as Homo sapiens) [compound 21] | ″++″ (≥20% = ++)
392 (ALLHPQGFEV; listed as Homo sapiens) [compound 392] | ″++″ (≥20% = ++)
598 (FLFPHSVLV; listed as Homo sapiens) [compound 598] | ″+++″ (≥50% = +++)
396 (ALLPDLPAL; listed as Homo sapiens) [compound 396] | ″+++″ (≥50% = +++)
